Results as given in patent US20150258192A1, “COMPOSITIONS AND METHODS FOR PREVENTING OR TREATING CHRONIC LUNG ALLOGRAFT DYSFUNCTION (CLAD) AND IDIOPATHIC PULMONARY FIBROSIS (IPF)” (priority 2014, published 2015).
No end group written: not given here.

What was measured:
Abl(H396P)(h) = Abl(H396P)(h) (Homo sapiens, UniProt P00519, H396P); assay: Kinase Profiling Assay; assay type: biochemical; conditions: peptide 100 μM
Procedure, shortened: (§1)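 In this 266-kinase specificity panel, every measurement was duplicated. Transfer of labeled phosphate from ATP to a cationic substrate was quantified after the substrate adhered to an anionic filter membrane and was scintillation-counted, then related to a full-activity control.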

Lck(h) = target: T1, Lck(h) (Homo sapiens, UniProt P06239); assay: Kinase Profiling Assay; assay type: biochemical; conditions: peptide 100 μM
T1 construct: purchased Millipore
Procedure, shortened: as §1

CK1γ3(h) = CK1γ3(h) (Homo sapiens, UniProt Q9Y6M4); assay: Kinase Profiling Assay; assay type: biochemical; conditions: peptide 100 μM
Procedure, shortened: as §1

PDGFRα(D842V)(h) = PDGFRα(D842V)(h) (Homo sapiens, UniProt P16234, D842V); assay: Kinase Profiling Assay; assay type: biochemical; conditions: peptide 100 μM
Procedure, shortened: as §1

PAR-1Bα(h) = PAR-1Bα(h) (Homo sapiens, UniProt Q7KZI7); assay: Kinase Profiling Assay; assay type: biochemical; conditions: peptide 100 μM
Procedure, shortened: as §1

IGF-1R(h) = target: T2, IGF-1R(h) (Homo sapiens, UniProt P08069); assay: Kinase Profiling Assay; assay type: biochemical; conditions: peptide 100 μM
T2 construct: purchased Millipore
Procedure, shortened: as §1

GRK5(h) = target: T3, GRK5(h) (Homo sapiens, UniProt P34947); assay: Kinase Profiling Assay; assay type: biochemical; conditions: peptide 100 μM
T3 construct: purchased Millipore
Procedure, shortened: as §1

[1] = tested on: fibroblasts from human idiopathic pulmonary fibrosis (IPF) lung; assay: HA production of fibroblasts; assay type: cell-based
[2] = tested on: primary lung fibroblasts from patients with IPF; assay: Matrigel invasion assay, human IPF fibroblasts; assay type: cell-based; conditions: MK2i treatment
Protocol: (§2) Fibroblasts are critical effector cells in mediating tissue remodeling. […] We have developed a novel model of progressive lung fibrosis based on a cancer metastasis model. […] We hypothesized that fibrotic fibroblasts acquire an invasive phenotype that is essential for progressive fibrogenesis and that CD44 has a critical role in regulating the process. We utilized an assay system in which fibroblasts are evaluated for their ability to spontaneously invade Matrigel, a composite matrix with basement membrane constituents. This assay has been used to analyze the metastatic potential of cancer cells (40).
We have hypothesized that the essential feature of IPF is the development of an invasive fibroblast phenotype that has developed a gene program that facilitates matrix invasion. To determine if the data obtained from the ASMA-HAS2 transgenic mouse model of severe, progressive and destructive fibrosis is relevant to human lung fibrosis, we isolated primary lung fibroblasts from patients with IPF and analyzed their invasive capacity. We found a striking increase in the invasive capacity of IPF fibroblasts compared to fibroblasts isolated from normal lung tissue (FIG. 34).

[3] = tested on: bleomycin treated wild type (WT) mouse lung; assay: HA content in bleomycin treated mouse lung; conditions: in vivo
[4] = tested on: alpha-smooth muscle actin (α-SMA); assay: α-SMA immunostaining of lung sections, bleomycin treatment model; assay type: in vivo, mouse; conditions: 50 μg/kg/day IP or nebulizer, day 14-28
Text: C57-BL/6 mice were subjected to bleomycin injury at day 0. […] Formalin-fixed lung tissue sections were immunostained against α-SMA. Control staining was with biotinylated secondary IgG antibody. Streptavidin-conjugated horseradish peroxidase was used with 3,3′-diaminobenzidene as substrate and nuclei was counterstained with hematoxylin. Original magnifications: 20×

mesothelial cells = conditions: cited from earlier work
TNF-α = assay: Circulating inflammatory cytokines, bleomycin treatment model; assay type: in vivo, mouse; conditions: 24 hours after final administration
[5] = target: T4, human recombinant MK2 (h) (Homo sapiens, UniProt P49137); assay: Radiometric IC50 Determination; assay type: biochemical; conditions: 10-point curve; ATP within 15 μM of apparent Km
T4 construct: purchased Millipore (IC50 Profiler Express service)
Protocol: The IC50 value was estimated from a 10-point curve of one-half log dilutions. Peptide was supplied in dimethyl sulfoxide (DMSO). Specifically, human recombinant MK2 (h) (5-10 mU) was incubated with 50 mM sodium 3-glycerophosphate (pH=7.5), 0.1 mM EGTA, 30 μM of substrate peptide ([…]; SEQ ID NO: 21), 10 mM magnesium acetate, and 90 uM γ-^33P-ATP (final volume of 25 μL) for 40 minutes at room temperature. Then, the reaction was stopped with 3% phosphoric acid. 10 μL of this mixture was spotted onto a P30 filtermat and washed three times for five minutes with 75 mM phosphoric acid and once with methanol. Finally, the membrane was dried and a scintillation counter was used.
Specifically, in these assays, a positively charged substrate is phosphorylated with a radiolabeled phosphate group from an ATP if the kinase is not inhibited by an inhibitor peptide. The positively charged substrate then is attracted to a negatively charged filter membrane, quantified with a scintillation counter, and compared to a 100% activity control.

[6] = tested on: fibroblasts from bleomycin treated mouse lung; assay: Matrigel invasion assay, mouse lung fibroblasts; assay type: cell-based; conditions: fibroblasts from WT or ASMA-HAS2 mice; 8 μm
Protocol: as §2
To determine the role of CD44 in fibroblast invasion we examined the invasive capacity of fibroblasts isolated from CD44 null mice after bleomycin treatment and found impaired invasive capacity (not shown). Similar results were found from fibroblasts isolated from ASMA-HAS2+/CD44−/− mice (FIG. 37 A). Furthermore, treating fibroblasts isolated from bleomycin-challenged wild type C57B1/6J mice with anti-CD44 Abs blunted fibroblast invasion (FIG. 37 B).

[7] = tested on: fibroblasts from bleomycin treated murine hyaluronan synthase 2 (mHAS2) lung; assay: HA production of fibroblasts; assay type: cell-based, mouse
IL-6 = assay: Circulating inflammatory cytokines, bleomycin treatment model; assay type: in vivo, mouse; conditions: 24 hours after final administration
[8] = tested on: bleomycin-induced lung fibrosis in C57BL/6 mice; conditions: 37.5 μg/kg daily for 14 d from d14, inhaled or intra-peritoneal; cited from earlier work

T3 sequence (P34947 whole entry): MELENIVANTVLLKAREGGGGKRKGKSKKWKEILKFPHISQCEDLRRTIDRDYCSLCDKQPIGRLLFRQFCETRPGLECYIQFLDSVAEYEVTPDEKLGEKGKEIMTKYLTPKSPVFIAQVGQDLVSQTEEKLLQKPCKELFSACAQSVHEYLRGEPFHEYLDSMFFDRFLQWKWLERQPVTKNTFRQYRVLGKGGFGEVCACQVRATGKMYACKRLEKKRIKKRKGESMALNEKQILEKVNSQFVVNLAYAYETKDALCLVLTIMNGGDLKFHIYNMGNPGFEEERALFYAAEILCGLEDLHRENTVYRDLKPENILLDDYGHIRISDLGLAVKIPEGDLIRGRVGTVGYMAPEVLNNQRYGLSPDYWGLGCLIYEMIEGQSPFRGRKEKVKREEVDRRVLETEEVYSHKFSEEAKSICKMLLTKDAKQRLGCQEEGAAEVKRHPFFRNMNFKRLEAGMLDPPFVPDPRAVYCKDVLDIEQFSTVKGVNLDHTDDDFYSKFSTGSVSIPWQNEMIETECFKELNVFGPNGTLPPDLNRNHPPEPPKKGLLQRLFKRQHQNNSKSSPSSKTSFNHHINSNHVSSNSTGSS
CK1γ3(h), sequence (Q9Y6M4 whole entry): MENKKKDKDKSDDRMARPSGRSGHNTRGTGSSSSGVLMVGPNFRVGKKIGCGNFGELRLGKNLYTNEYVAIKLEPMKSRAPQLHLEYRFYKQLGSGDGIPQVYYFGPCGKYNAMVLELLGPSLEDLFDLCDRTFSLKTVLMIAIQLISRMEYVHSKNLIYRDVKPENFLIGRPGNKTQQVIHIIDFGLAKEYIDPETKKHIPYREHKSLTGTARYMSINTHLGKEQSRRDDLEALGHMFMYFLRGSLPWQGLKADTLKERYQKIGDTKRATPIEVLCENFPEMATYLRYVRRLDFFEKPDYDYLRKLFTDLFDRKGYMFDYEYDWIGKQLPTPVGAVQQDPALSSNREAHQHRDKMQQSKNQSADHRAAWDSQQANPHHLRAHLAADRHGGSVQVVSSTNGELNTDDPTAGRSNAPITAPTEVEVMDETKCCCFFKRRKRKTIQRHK
T1 sequence (P06239 whole entry): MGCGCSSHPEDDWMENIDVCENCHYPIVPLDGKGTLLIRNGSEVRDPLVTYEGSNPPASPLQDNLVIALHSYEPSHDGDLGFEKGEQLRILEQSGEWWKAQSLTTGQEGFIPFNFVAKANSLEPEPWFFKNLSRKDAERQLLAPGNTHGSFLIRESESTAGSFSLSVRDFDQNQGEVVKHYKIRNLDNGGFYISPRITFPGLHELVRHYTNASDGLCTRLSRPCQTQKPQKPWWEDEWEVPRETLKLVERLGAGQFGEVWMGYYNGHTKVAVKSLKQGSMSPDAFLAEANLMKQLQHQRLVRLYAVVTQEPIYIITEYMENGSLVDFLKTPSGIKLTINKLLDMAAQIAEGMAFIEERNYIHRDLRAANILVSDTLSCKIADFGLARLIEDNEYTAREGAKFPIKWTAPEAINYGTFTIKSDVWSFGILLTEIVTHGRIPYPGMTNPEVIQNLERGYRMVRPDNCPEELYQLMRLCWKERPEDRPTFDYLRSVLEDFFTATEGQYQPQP
PDGFRα(D842V)(h), sequence (P16234 24-1089 D842V): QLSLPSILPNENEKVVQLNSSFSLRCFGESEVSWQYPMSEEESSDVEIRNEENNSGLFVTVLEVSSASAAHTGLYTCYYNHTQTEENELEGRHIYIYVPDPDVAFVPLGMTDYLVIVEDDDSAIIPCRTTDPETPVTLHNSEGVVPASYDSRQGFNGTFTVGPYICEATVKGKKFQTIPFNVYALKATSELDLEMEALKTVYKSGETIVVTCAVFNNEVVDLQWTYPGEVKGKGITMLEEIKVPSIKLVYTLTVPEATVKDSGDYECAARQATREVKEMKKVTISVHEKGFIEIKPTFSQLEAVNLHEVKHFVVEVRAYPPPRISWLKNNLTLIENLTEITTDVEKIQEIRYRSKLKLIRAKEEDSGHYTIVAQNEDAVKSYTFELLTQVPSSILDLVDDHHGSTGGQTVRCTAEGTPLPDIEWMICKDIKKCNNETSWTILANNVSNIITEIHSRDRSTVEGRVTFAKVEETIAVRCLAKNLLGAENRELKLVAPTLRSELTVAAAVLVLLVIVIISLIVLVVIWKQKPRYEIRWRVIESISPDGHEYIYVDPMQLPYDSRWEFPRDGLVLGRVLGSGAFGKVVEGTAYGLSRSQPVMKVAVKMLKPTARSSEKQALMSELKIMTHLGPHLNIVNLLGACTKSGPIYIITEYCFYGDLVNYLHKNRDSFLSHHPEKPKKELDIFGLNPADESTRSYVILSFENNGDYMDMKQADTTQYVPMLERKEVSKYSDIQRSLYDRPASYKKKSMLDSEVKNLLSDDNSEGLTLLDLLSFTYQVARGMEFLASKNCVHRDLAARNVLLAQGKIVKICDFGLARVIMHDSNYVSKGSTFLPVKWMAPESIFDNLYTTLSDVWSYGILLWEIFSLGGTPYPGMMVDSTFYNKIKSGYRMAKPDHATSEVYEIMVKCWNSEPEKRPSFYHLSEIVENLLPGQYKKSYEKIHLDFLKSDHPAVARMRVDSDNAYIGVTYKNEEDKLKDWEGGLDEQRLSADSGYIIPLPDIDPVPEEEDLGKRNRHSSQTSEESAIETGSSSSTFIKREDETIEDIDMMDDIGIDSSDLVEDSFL
PAR-1Bα(h), sequence (Q7KZI7 1-725 isoform Q7KZI7-4): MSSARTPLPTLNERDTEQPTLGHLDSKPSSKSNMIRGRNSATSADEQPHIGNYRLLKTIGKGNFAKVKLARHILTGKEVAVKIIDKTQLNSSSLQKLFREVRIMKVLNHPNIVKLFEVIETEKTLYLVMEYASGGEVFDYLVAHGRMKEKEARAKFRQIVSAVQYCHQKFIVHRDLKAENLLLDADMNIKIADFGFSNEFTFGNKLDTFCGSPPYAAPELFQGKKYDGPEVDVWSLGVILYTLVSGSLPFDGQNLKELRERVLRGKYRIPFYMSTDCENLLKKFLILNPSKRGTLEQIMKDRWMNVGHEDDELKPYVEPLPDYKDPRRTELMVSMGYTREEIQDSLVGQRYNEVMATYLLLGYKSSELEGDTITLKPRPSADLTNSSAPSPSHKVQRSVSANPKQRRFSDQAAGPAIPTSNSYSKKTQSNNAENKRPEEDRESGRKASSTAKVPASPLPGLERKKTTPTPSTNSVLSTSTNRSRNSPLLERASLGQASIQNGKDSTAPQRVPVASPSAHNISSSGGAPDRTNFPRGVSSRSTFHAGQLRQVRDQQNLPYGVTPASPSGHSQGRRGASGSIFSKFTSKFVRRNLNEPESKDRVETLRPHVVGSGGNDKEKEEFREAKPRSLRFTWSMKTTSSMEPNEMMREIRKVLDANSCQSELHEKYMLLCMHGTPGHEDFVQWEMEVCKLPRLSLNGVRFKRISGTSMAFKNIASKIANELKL
T4 sequence (P49137 whole entry): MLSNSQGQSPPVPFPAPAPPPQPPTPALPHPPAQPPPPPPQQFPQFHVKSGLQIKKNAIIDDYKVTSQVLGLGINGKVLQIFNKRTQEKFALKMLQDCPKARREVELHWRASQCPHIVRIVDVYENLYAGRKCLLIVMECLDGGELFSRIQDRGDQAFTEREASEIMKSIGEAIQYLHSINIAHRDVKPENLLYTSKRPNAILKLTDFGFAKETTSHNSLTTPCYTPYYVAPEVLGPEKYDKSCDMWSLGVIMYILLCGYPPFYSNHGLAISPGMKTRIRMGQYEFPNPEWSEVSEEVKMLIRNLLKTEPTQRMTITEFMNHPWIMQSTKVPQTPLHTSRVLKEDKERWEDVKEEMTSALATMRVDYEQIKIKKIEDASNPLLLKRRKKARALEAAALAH

Row | Sequence | % activity (Abl(H396P)(h)) [%] | % activity (Lck(h)) [%] | % activity (CK1γ3(h)) [%] | % activity (PDGFRα(D842V)(h)) [%] | % activity (PAR-1Bα(h)) [%] | % activity (IGF-1R(h)) [%] | % activity (GRK5(h)) [%] | further results
1 | FAKLAARLYRKALARQLGVAA [MMI-0300] | 101 | -2 | 125 | – | – | – | – | –
2 | HRRIKAWLKKIKALARQLGVAA (Mammal) [MMI-0500] | 51 | 359 | – | 170 | 97 | – | – | –
3 | KAFAKLAARLYRKALARQLGVAA [MMI-0400] | – | – | – | 118 | – | 90 | 131 | –
4 | YARAAARQARAKALARQLGVAA [MMI-0100] | – | – | – | – | – | – | – | HA production [1]: reduced; invasive capacity of IPF fibroblasts [2]: able to inhibit; hyaluronan (HA) content in lung [3]: reduced; level of α-SMA in lungs vs untreated bleomycin-injured lungs [4]: significantly attenuated; TFG-β-induced cytokine release (mesothelial cells): inhibits; plasma level of TNF-α (TNF-α; intraperitoneal): significantly reduced; plasma level of TNF-α (TNF-α; nebulized): significantly reduced; IC50 [5]: 22 µM; fibroblast invasion [6]: significantly reduced; hyaluronan (HA) production [7]: reduced; plasma level of IL-6 (IL-6; intraperitoneal): significantly reduced; plasma level of IL-6 (IL-6; nebulized): significantly reduced; progression of fibrosis (collagen deposition, myofibroblast differentiation, activated MK2 expression) [8]: inhibited
5 | YARAAARQARAKALNRQLGVA (Mammal) [MMI-0200] | – | – | 96 | – | 110 | 49 | 135 | –
